For two molecules, Kd results are on record in paper PMC11665613 (2024).

Assay in all cases: MST
Experiment [1] addresses NCP3, nucleosome core particle with 3xFLAG-H3Kc36me3 (X. laevis | , Kc36me3 (trimethyllysine mimic on cysteine at position 36)).
Experiment [2] concerns the target NCP2, nucleosome core particle with 3xFLAG-H3K36NleCTMS (X. laevis | , cysteine at position 36 alkylated with vinyl cyclic sulfonium 5 (NleCTMS)).
The target in experiment [3] is NCP1, nucleosome core particle with 3xFLAG-H3K36NleCS+me2 (X. laevis | , cysteine at position 36 alkylated with vinyl dimethylsulfonium 4 (NleCS+me2)).

B1: PWWP domain of NSD2 (domain or fragment)
chain: VGDLVWSKVSGYPWWPCMVSADPLLHSYTKLKGQKKSARQYHVQFFGDAPERAWIFEKSLVAFEG
In the case of B1, the dissociation constant (Kd) (in general, the equilibrium constant for the complex coming apart) in experiment [1] came to 1400 nM; in experiment [2] it was 1600 nM; in experiment [3], 1100 nM.

B2: PWWP domain of LEDGF (domain or fragment)
chain: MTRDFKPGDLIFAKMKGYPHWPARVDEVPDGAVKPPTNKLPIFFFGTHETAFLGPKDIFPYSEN
Consider B2, for which the dissociation constant Kd came out at 1400 nM in experiment [1], 1200 nM in experiment [2] and 520 nM in experiment [3].
